The text below walks through data of article PMC11794977, “Inhibitory Potential and Binding Thermodynamics of Scyllatoxin‐Based BH3 Domain Mimetics Targeting Repressor BCL2 Proteins” (Journal of Molecular Recognition, 2025).

Test [1] concerns the target T1, Bcl‐2‐ΔTM (recombinant His‐tagged Bcl‐2 without its transmembrane domain).
T1 construct: also called Bcl‐2 (proper); Bcl‐2‐ΔTM proteins
Nature of the test: fluorescence polarisation; competition: 100 nM Bcl‐2‐ΔTM and 25 nM ^FluBax‐BH3^ΔB pre‐incubated 1 h, then acetylated peptide (100 μM to 2.3 pM) added for 1 h; binding buffer (50 mM Tris, 100 mM NaCl, pH 8.0); ambient temperature; triplicate. Particulars: both partners purified.

Test [2] deals with T1, Bcl‐2‐ΔTM (recombinant His‐tagged Bcl‐2 …). As to the kind of experiment: ITC; 200 μM acetylated peptide injected into 20 μM Bcl‐2‐ΔTM in the cell; binding buffer (50 mM Tris, 100 mM NaCl, pH 8.0); 25°C; one‐site model; Kd as reciprocal of Ka; triplicate. Particulars: both partners purified. Background: In ITC the heat of successive injections is recorded.

B1: ^AcBax‐BH3^ΔB (peptide)
chain: STKKLSEXLKRIGDELDSNM
HELM: PEPTIDE1{[ac].S.T.K.K.L.S.E.[Abu].L.K.R.I.G.D.E.L.D.S.N.M.[am]}$$$$V2.0
SMILES: CC[C@H](NC(=O)[C@H](CCC(=O)O)NC(=O)[C@H](CO)NC(=O)[C@H](CC(C)C)NC(=O)[C@H](CCCCN)NC(=O)[C@H](CCCCN)NC(=O)[C@@H](NC(=O)[C@H](CO)NC(C)=O)[C@@H](C)O)C(=O)N[C@@H](CC(C)C)C(=O)N[C@@H](CCCCN)C(=O)N[C@@H](CCCNC(=N)N)C(=O)N[C@H](C(=O)NCC(=O)N[C@@H](CC(=O)O)C(=O)N[C@@H](CCC(=O)O)C(=O)N[C@@H](CC(C)C)C(=O)N[C@@H](CC(=O)O)C(=O)N[C@@H](CO)C(=O)N[C@@H](CC(N)=O)C(=O)N[C@@H](CCSC)C(N)=O)[C@@H](C)CC
By IC50 is commonly meant the concentration needed to halve the response being measured. In general, Kd refers to the equilibrium constant for the complex coming apart. By stoichiometry N is commonly meant a count of units in the complex or per binding partner. In the case of B1, the IC50 in test [1] was found to be 141 nM. Further, in test [2], the Kd amounted to 191 nM, the dH was -5.43 kcal/mol and the “stoichiometry N” value is 0.93.
